In patent US20210380647A1 (AFFILOGIC, published 2021):

How the values were obtained:
TNFa mutant S95C/G148C = biological target: T1, TNFa mutant S95C/G148C (UniProt P01375 77-233, S95C; G148C, disulfide bridges between subunits via C95 and C148); assay: ELISA of N11 on TNFa mutants (FIG. 12)
T1 construct: Positions probably count on the mature soluble chain; also called stabilized trimer of TNFa; stabilized TNFa trimer

murine TNFa = biological target: T2, murine TNFa (murine, UniProt P06804 80-235); assay: ELISA at a single concentration (EC100) on a plate functionalized with mTNFa (FIG. 3)
T2 construct: also called mTNFa; mouse TNF
T2 sequence (looked up): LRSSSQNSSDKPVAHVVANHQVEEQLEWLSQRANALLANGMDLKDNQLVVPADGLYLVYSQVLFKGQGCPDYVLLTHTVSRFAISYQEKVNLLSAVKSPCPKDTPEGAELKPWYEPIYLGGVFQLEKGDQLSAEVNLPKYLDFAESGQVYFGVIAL
Experimental: Biotinylated antigens are immobilized on streptavidin-coated plates as described above, except that the blocking step is performed for 1h at room temperature. For the identification of the positive clones, 100 μl of E. coli crude extracts are applied to wells with or without immobilized antigen for 1 h at RT. The binding is visualized using anti-RGSHis antibody HRP conjugate (Qiagen) which detects RGSHis6 tag from the variant and a solution at 1 mg/ml of o-phenylenediamine substrate (OPD) in revelation buffer (0.05 M citric acid, 0.05% hydrogen peroxide). Absorbance at 450 nm is measured using an ELISA plate reader. Quantitative ELISAs is done in the same manner, except purified protein is used.
A plate was functionalized with hTNFa and mTNFa.

TNFa mutant Y119A = biological target: T3, TNFa mutant Y119A (UniProt P01375 77-233, Y119A); assay: ELISA of N11 on Y119 mutants (FIG. 12A)
T3 construct: The text speaks of 'Y119 mutants'; also called Y119 mutants; Y119 TNFalpha variants
T3 sequence (P01375 77-233 Y195A): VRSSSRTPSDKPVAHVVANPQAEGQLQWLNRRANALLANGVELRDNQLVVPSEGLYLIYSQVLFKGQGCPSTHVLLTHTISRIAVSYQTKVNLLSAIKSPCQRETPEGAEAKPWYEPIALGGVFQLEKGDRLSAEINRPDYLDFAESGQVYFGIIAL

TNFa mutant Y119R = biological target: T4, TNFa mutant Y119R (UniProt P01375 77-233, Y119R); assay: ELISA of N11 on Y119 mutants (FIG. 12A)
T4 construct: The text speaks of 'Y119 mutants'; also called Y119 mutants; Y119 TNFalpha variants
T4 sequence (P01375 77-233 Y195R): as the sequence (P01375 77-233 Y195A) above, with A119R counted along it

T1 sequence (P01375 77-233 S171C/G224C): as the sequence (P01375 77-233 Y195A) above, with S95C, A119Y, G148C counted along it

binding result (TNFa mutant S95C/G148C): no binding | binding result (murine TNFa): binds | binding result (TNFa mutant Y119A): binds | binding result (TNFa mutant Y119R): binds
B1: N11 (designed binder)
chain: MVKVKFVMFGKEKEVDTSKIVHVMRQGKLVHFWYEDNGKIDKGFVPEKDAPKELLDMLARAEREK
notes: Variant of Sac7d selected by ribosome display on biotinylated hTNFa; also called Sac7d variant N11; Nanofitin N11
